Results reported in patent US5969210, “Methods for the characterization of compounds which stimulate STF-1 expression in pancreatic islet cells” (Research Development Foundation).

Biological target: BETA-2/E47 heterodimer (reticulocyte lysate) (UniProt Q60430;P15923-2 Q60430:1-355,P15923-2:1-651)
Assay: EMSA; BETA-2 and E-47 cDNAs
Settings: label: 32P

Chain of BETA-2/E47 heterodimer (reticulocyte lysate) (Q60430 whole entry, chain 1 of 2): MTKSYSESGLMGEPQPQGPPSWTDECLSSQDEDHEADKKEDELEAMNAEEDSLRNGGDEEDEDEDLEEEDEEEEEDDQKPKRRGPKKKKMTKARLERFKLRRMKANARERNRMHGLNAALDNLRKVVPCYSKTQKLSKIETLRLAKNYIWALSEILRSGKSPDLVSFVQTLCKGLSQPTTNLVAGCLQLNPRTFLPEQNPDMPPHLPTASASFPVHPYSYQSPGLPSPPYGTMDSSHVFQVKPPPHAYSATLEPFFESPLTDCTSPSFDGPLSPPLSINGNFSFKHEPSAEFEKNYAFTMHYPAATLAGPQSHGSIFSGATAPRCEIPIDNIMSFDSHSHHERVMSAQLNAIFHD
Chain of BETA-2/E47 heterodimer (reticulocyte lysate) (P15923 other isoform, or with tags, fused parts or gaps, chain 2 of 2): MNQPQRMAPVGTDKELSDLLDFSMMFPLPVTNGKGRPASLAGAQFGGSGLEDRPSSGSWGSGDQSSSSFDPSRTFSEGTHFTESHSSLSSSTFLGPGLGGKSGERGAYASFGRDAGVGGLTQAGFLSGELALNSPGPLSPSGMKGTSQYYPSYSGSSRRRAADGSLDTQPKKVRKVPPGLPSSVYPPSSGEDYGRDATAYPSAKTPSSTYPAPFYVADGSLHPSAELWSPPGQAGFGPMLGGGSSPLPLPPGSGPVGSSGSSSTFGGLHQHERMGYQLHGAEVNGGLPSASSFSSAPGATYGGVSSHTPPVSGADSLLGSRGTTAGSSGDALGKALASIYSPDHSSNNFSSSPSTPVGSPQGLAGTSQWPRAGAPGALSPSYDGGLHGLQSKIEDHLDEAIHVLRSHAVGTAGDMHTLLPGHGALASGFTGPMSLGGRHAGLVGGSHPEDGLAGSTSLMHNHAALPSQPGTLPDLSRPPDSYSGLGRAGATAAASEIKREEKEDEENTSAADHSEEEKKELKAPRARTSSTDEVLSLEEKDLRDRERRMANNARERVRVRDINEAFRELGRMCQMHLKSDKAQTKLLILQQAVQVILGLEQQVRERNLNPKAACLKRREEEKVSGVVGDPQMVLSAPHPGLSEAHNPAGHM

B1: B element WT (dsDNA)
DNA 1: TCAGTGACAGATGGAGTCCT
DNA 2: AGGACTCCATCTGTCACTGA
binding result: binds
